According to publication PMC4578769, “Development of a Fluorescence-based Trypanosoma cruzi CYP51 Inhibition Assay for Effective Compound Triaging in Drug Discovery Programmes for Chagas Disease” (PLoS Neglected Tropical Diseases, 2015):

Substrate: N#Cc1cc2ccc(OCOCc3ccccc3)cc2oc1=O
Assay: Michaelis-Menten kinetic determination of BOMCC O-dealkylation
Format: biochemical, Trypanosoma cruzi
Conditions: other: 37 pmoles/mL T. cruzi CYP51 enzyme, 25-250 μM BOMCC, 37°C
Experimental: Incubations were pre-warmed at 37°C before addition of NADPH regenerating system. Production of CHC was measured at 1 minute intervals at 37°C (Exc 410 nm, Em 460 nm) for 10 minutes (Fig 3b). […] Assay conditions of 37 pmoles/mL of T. cruzi CYP51 in bactosomes and 100 μM BOMCC provided a good dynamic range of metabolism.

B1: T. cruzi CYP51 (Trypanosoma cruzi strain CL Brener) (protein)
chain: MFIEAIVLALTALILYSVYSVKSFNTTRPTDPPVYPVTVPFLGHIVQFGKNPLEFMQRCKRDLKSGVFTISIGGQRVTIVGDPHEHSRFFSPRNEILSPREVYTIMTPVFGEGVAYAAPYPRMREQLNFLAEELTIAKFQNFVPAIQHEVRKFMAENWKEDEGVINLLEDCGAMIINTACQCLFGEDLRKRLNARHFAQLLSKMESSLIPAAVFMPWLLRLPLPQSARCREARAELQKILGEIIVAREKEEASKDNNTSDLLGGLLKAVYRDGTRMSLHEVCGMIVAAMFAGQHTSTITTSWSMLHLMHPKNKKWLDKLHKEIDEFPAQLNYDNVMDEMPFAERCVRESIRRDPPLLMVMRMVKAEVKVGSYVVPKGDIIACSPLLSHHDEEAFPNPRLWDPERDEKVDGAFIGFGAGVHKCIGQKFALLQVKTILATAFREYDFQLLRDEVPDPDYHTMVVGPTLNQCLVKYTRKKKLPS
notes: ompA leader (N); host or cells: E. coli JM109 (membrane fraction, bactosomes)
- Km: 191 ± 55 µM
